Assay results taken from patent US20120101255A1.

Biological target: Recombinant Cx43CT (carboxyl terminal domain of rat connexin43, residues 255-382, preceded by GPLG) (rat) (UniProt P08050)
Assay: SPR on the carboxyl terminal domain of Cx43, peptide at 1.0 mM

Sequence of Recombinant Cx43CT (carboxyl terminal domain of rat connexin43, residues 255-382, preceded by GPLG) (rat) (P08050 other isoform, or with tags, fused parts or gaps limits assumed): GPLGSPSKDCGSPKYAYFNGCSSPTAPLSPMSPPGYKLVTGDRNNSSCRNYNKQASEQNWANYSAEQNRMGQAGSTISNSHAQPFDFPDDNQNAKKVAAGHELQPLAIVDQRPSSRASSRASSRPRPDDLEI

- Response (arbitrary units): 4.6
Substance: AcRNP-NH2 (Identification No. 2502) (peptide)
